These results are taken from a protein production outcome set (Wang et al. 2014).

The nature of this data set: label from the status in PepcDB records.

Regarding “MKRKKIKNQLLVLTSILVLLSLEVAPVVTLAAELPSSSLQTALSSETTITSEEKVTETTETTVATSTTSTSSSSSESSSSTDTTTESTSQSTTETTTTNTSSETKKEPTEPTVSSEITQPVEQSQPPQVPVTKQEPEEPIQVPEANNNFVEENQAVSLNPSLKVDEIASSNLKGYELPLLSSFGEKKRAVVVAEALRHVGKTKKEFNLTEQALTSSFLAQKIYQQLFKIDIGSTPQEQMTFGKVRSIEEAEPGDLIFWQTAEGKTLQNGVYLGQGKYLIAAAESDSKEKPEVIAQLENIYTAKQQPDSKEEKRLVVTNPFKEFILTEYGKEVLATYGASFEMQKSEQTTAFIKKIGETARELGEKYDVFASVMIAQAILESGSGESQLAKEPYYNLFGVKGSFQGNSVSFSTKEADQRGQLYTISAGFRDYGGYNDSLQDYVQLLRQGIDGNQDFYKPAWRSEAKNYLQATRFLTGKYATDKQYDNKLNSLIAVYNLTQFDLPKTVDGLIIQSKNKLSEAEQQQMHFPVYDGINYNRSGSYPVGQCTWYVYNRFKQLGTSVDEFMGNGSDWGRKGRALGYQVSSLPKAGRAISFQPGVAGADNQYGHVAFVEAVTSDGIIISESNVINDQTISYRVLPNVIAYSSGVTYIGA”, the protein production result was “failed”. Consider “MKRLPLLAALPLLCASALSAQPLMSVGYFNGGGDVTAGPGGDIDKLDVRQITHLNYSFGLIYNDEKDETNAALKDPAHLHEIWLSPKVQADLQKLPALRKQNPDLKVLLSVGGWGARGFSGAAATAESRAVFIRSAQKIIQQYGLDGIDLDWEFPVNGAWGLVASQPADRDNFTALLKSLREAVGEQKLVTIAVGANAESPKSWVDVKAVAPVLNYINLMTYDMAYGTQYFNSNLYDSSHWPTVAAADKYSADFVVNNYLAAGLKPSQMNLGIGFYGRVPKRAVEPGIDWTKADAQNNPVTQPYFGPQQIALFASLGYDLSKDTYVKYNDIVGKLLNDPQKRFTEHWDDEAKVPWLSVQSAEGKPLFALSYENPRSVAIKADYIKAKGLAGAMFWEYGADDQNQLARQLAESLGIKH”, for which the protein production entry is recorded as “not failed”. The value for “MKRLYKAMFIVFILLVLMFASQQGLFEHVTNSNWVAHFIKAEGNYALMALLAVGALFTAVGGPRQVIAFVFGFALGGIYGGLFSTLAALLGCVLVFYTARLTIRSSLQRRFGHRLQKFEALIIHRTWLKVLMIRLLPVGSNLLTNLFAGATHISPGGFLFGSMLGYLPQMLIFSFAGAGIGLADHNQLWISIGLFIVSSLIGAYLYRSSLRKQVDELEH” was “failed”.

For the sequence “MKRMSSLEYHFGVKVRFYPSNNQKKMIKQNYDAQRFVYNQYVGAGRLIYHVKKANRIKQLSSGLPFVMQGMSEYENQQALRMIDTQDLISKPKNIRDKYDFLRVEDIDSLAIANAIQNYHKAWRNYHKIGYGIPTFHKKRSSWSYQTNCQYIKQDAAYLDNGTVRFIDAKHVKLPKLGIVRIAGLRKLIKKRLFNRIPIRIGTASIKKTADDQFYLSLQLGSDIAFVKDYAKTQKQIGIDLNLDNFLTDSNGAMVANPRFYRRAKKKLAHAQRILSRRERRAKKEGRSLCESKNYQKQRLAVAKLHDRIRRQRQDFLQVLSTALIKNHDLVVAEELRSKNLLKNHALAQSISDAGWRSFLTMLEYKADLHGKKFVTIDPKFTTQRCHNCGNIMGQNGYKKLTLKDRKWTCPVCGSYHIRDWNASVNILEKSKGIWKNPKIKKRSK”, the protein production entry is on record as “failed”.

Consider “MKRNTRLLFVVPAFFAIFAMACACQGGTAGKSFTNSTGSPGEMMLVMDDQYLGSPVGEAIYEAMTEVAPALNQNEPIMAVSRVSEKDFTGFLRYIRNVLQIDINPDIFTKTSLKYGYDQWANGQLVVLINSPATDSLTAYVESNKSAIQNLFIRHELFLFGQLWQKDCSADADQRVQRMFGYHINVPADILSHKEGKDFLWMSNNQMRRRKDFLVYTFPYRGASDLGLDRMVEVRDSVLKANIEGSDAGSYPVTERMLLKHRYVYPGDQKRGEVHGIWRMEGGQMMSGPFVAQAFVDGDRVVVVEGFVYHPNEKKRDLMRQMEAALYSMRPKAEKEFDPSIIRKARWTTLK”, for which the protein production result is listed as “failed”.

“MKRPGAIPTVQIDNERVKVTEWRFPPGGETGWHRHSMDYVVVPMTTGPLLLETPEGSVTSQLTRGVSYTRPEGVEHNVINPSDTEFVFVEIEIKAA”: the protein production entry was “not failed”. For “MKRRSVLLSGVALSGTALANDSIFFSPLKYLGAEQQRSIDASRSLLDNLIPPSLPQYDNLAGKLARRAVLTSKKLVYVWTENFGNVKGVPMARSVPLGELPNVDWLLKTAGVIVELIVNFVASLPASAAAQFERIATGLSGDLEAARQVHEALLEEAKNDPAAAGSLLLRFTELQTRVIAILTRVGLLVDDILKSASNLVTQRGQGDGLNRFRAVFGTLRLPEVADSFRDDEAFAYWRVAGPNPLLIRRVDALPANFPLGEEQFRRVMGADDSLLEAAASRRLYLLDYAELGKLAPSGAVDKLLTGTGFAYAPIALFALGKDRARLLPVAIQCGQDPATHPMFVRPAESESDLYWGWQMAKTVVQVAEENYHEMFVHLAQTHLVSEAFCLATQRTLAPSHPLHVLLAPHFEGTLFINEGAARILLPSAGFIDVMFAAPIQDTQATAGGNRLGFDFYRGMLPESLKARNVDDPLALPDYPYRDDGLLVWNAIRQWAADYVAVYYASDGDVTADVELAAWVGEVIGSGKVAGFRPITGRSQLVEVLTMVIFTASAQHAAVNFPQPSMMTYAPAICAMSAAPAPDSPSGKSEADWLKMMPPTLVALEKVNIYHLLGSVYHGRLGDYRQTGFPYAPVFSDRRVTASGGPLERFQARLKEVEATIRTRNQARRRPYEYLLPSRIPASTNI”, the protein production result is reported as “failed”.

Regarding “MKRSASLKEDVFLKSKVHFWTLEVLMVVAIIFICTKISFLFQPIGIFISTLFFPILIALFLYFIFNPVLVFLEEKKVPRNLAILLLYLFIITLTAVGVGVVVPTISQQLMDLVKNMPGYIKEGKLYIQDLSHHRLFEWLSTQNYVSIETIEKNAIEYLKDIPNTITSSATALFGIITNVALVIFTVPFILFYMFKDGHAFPGKAVSLLPESYREEGLRIIKETNETLSAYIQGQALVCIFVGAFTFIGYLIIDLPYAFVLGIIAAFTNIIPNLGPFIGAAPAVIVGLFVSPMQALYVIIIVTIVQQFESNIISPRIMSSKLNIHPLTIIILILGVGNFAGIIGMILAVPVYAVTKTVVSNLVRLFKTKRSNRK”, the protein production result is “failed”. Under “MKRSEKKSMSSALKNGIMERTQPEKVVQMQGTADLSTSKLGTKKYWDELYALELENFRRNPQDTGDCWFSDSDAEQKMIDFLVDNIGAYRISENASVVDLGTGNGHMLFELHQTEFQGKLVGIDYSEESVKLASNIAEATGVDNFISFQQADIFSGDWKPGKYDIVLDKGTLDAISLSGMKINGKLDVVDVYAGVVERILKKDGIFLITSCNFTQDELVKIIETDNLKMWKTIKYPVFQFGGVQGATICSVAFVKQN” stands “failed”; under “MKRSILNTLLNVLAIIFIVFLMIKVSVPMGSILLLSFIIFKLTINKHLIYMFKGAKKLRANNLEEALSLYRKAALCNSSNVKAIKTYVFLELKIGSYTEALETLKSIVSKRKFLPEDANQLDLLQAILYWKLNDIKTSLQILDDLKANNFNSLDFYEVYGYVLIQDEDFEKAISISNEGLKVDELSQIIRANLGEIFYKIGDIKKACFYFDELIDECVNFSEPYYFMGIISKEKEDFYKAKEFLNKALKYDESILSNLSKNDIENALISINH”, “failed”.

In the case of “MKRSNTVRLVVSKEQHEVLKRLGIATAKCWNEVNWLRMKQYKEGKRVDFGITEKAVYEKYKSVLRVNAQQVARKNAEDWRSFFSLTREKKEGKLPSWFKPRPPGYWKDGRLIVIIRNDRYTVDERNRVVYLKDFNLSLKFKGRLKWHGKQGRLEIIYDEARKIWYAHIPVEVETEKVKEGIKASIDLGIVNLATVYVEDGSWYLFKGGSALSHYENYSKRITIVQKTLHRHRQRRSRRLKLLHEKRSRFLKHALNSMVRRIMEILREKNVGEVVVGYPKEIAKHHGNKLTVNFWNYSYIIKRLEDIGEELGIKVITVDEAYTSKTCSLCGEAHEDGRVKRGLFVCPRTRKAINADLNGAINILHIPESRGSEGNFHRGIGVIGLKTQPVTLSDLSKIKNHYNYSISDYTILHYIQPLEHHHHHH”, the protein production entry is “not failed”. For the sequence “MKRSSPVILVSEDEYGKFDESTNSILVKGKMHHLGISRVIEPGDELIVSGKSFIVSDFSPMYFGRVIRRNTQIISEIDASYIIMRCGLRPGMDILEVGVGSGNMSSYILYALNGKGTLTVVERDEDNLKKAMDNLSEFYDIGNVRTSRSDIADFISDQMYDAVIADIPDPWNHVQKIASMMKPGSVATFYLPNFDQSEKTVLSLSASGMHHLETVELMKRRILVREGATRPASDDLTHTAFITFAIKKSGMVYRI”, the protein production entry is given as “not failed”. Under “MKRTFKMALIASLAVGGSYVLYGSQNKEELSDLALSNVEALTLGTKDCMYQRNSRCYELVVGPPGEPVIIETSEEANWVNRYTIPE” stands “failed”; under “MKRTHLASFSNRDKTQEEEGEDGNGDNRVIMNHYKNYEAGLIPWPPKNYTCSFCRREFRSAQALGGHMNVHRRDRAKLRQIPSWLFEPHHHTPIANPNPNFSSSSSSSTTTAHLEPSLTNQRSKTTPFPSARFDLLDSTTSYGGLMMDREKNKSNVCSREIKKSAIDACHSVRCEISRGDLMNKKDDQVMGLELGMSLRNPNQVLDLELRLGYL”, “not failed”. On to “MKRTLYSGVGLLLVGLLFLAFNLLSSLLLRDQQFDLTQQKLYTFSAGTQEVLDSLDEPLNLYLFFSKSRASDLPALRNYARRVEEVLDLYARRSHGNVRLFVIDPLPFSDDEDRAARFGLQAPPIGPNGEAIYFGLAATNPTDGLQVIPFFSPEEEPLLEYDLSRLVQALAQRERTVVGLMSSLPMTGQAPTDGQPGSRPWAMMDKLYQQFDIRTLGLASTEIPAEVSVLMLVHPRQLSEQTQYAIDQFVLRGGKLLAFVDPLSLADADGGKSSDLAPLLRSWGVQLRPDTLLADASFAMIKPNAERRPERNPTWLHLPGDTFPHDNVLTTGLESLNLASVGLLEPLGGASTRFIPLLHSSAHSMPLSLERFRQSSTEQLNATLVPTGERYVLAAKVEGPATSAFPADRGKQGEGLSDSANIHVLLVADTDLLSNPLWLQEQPGHNEPQVWADNDLFVGNALDYLSGSDALIDLRSRGHTKRPFTRVEALRREAGLRAQEQLNALQQSLNDTDRNLRTLQQSMDAGDQEVTPEMEATLRRFIDDKLRIRQQLRQLQFQLNADVERLGEQVKLANTVLLPALLTLFLLLHWSWRSMRRRRG”, for which the protein production result is listed as “failed”. Turning to “MKRVLVLGATGRTGNFVIKELSKYKSIQLIAGLRSQKDKERLPKINAAIETVVIDIADVCSLRKALTDSDIVVQAIRLRGDISENALIQLDQRIHQAFNPSRKTHLVTVGGAGALKLEANQRFWENEYFPRQTLPRGIAHARLRDYLEKSFFNHTWTYLIPPPVYVAEGARTGSYNRYSSAQKEDFFLSKSISYADFALAIGNAVMEEWQGVYLIAEKELEHHHHHH”, the protein production result is “failed”. Under “MKSCSRSSSVRLCVRCTGLSLWCCIGHATSVIKSVRNMQSVIGNGYKRSPTGKESRMTPLTSDFLSSSVVFLSAAVIAVPLAQRAGLGSVLGYLLAGIAIGPWGLGLIRDVQAIMHFAEFGVVLLLFLIGLELNPKKLWNLRGPILGLGGAQVVVTTAVLSSVAYLLGVSWQSALVIGMALALSSTAIALRVIEEHGLTRTEAGQSGFAVLLFQDIAVIPMLALLPILAGNSSGDWLNALWMTGGIAALLLGGHFLLNPLFRYIALSGVRELFTVAALLLVVGIALLMQKVGLSMALGTFLAGVILAESEFRHELEIAIDPFKGLLLGLFFISVGMAVDVGLLLVKPLQIMLAVLGLVIVKGLVLYLLARLSGTVAKARSKMAAILSQGGEFAFVIFTAASAEGLLTASQVSFLLVVVSLSMVTTPLLLSAQKYWFARQLNIEENPLTPDVENKEPRVIIVGFGRFGQIVGRLLYANKIKVTILESDASQVRLLRKYGYKVFYGDATNLELLRAAGVEQAEALVVCTDDPEQVITIVELCQQHFPNLKLLARARSRVEAYQLMSLGVQNYTRETFLSALDLGRKALVQLGMHPYQAKRAEEHFHRLDKTMLKELLPQHNEDKQLELRAKEARTELEEIFSREMDSDQLSRRYWEKE” stands “failed”.
